According to patent publication US20090047240A1:

Legend:
[1] = biological target: TLR7 expressed in HEK293 cells (UniProt Q9NYK1); assay: cell-based or functional assay
[2] = biological target: TLR9 expressed in HEK293 cells (UniProt Q9NR96); assay: cell-based or functional assay
Chain of TLR9 expressed in HEK293 cells (Q9NR96 26-1032 limits assumed): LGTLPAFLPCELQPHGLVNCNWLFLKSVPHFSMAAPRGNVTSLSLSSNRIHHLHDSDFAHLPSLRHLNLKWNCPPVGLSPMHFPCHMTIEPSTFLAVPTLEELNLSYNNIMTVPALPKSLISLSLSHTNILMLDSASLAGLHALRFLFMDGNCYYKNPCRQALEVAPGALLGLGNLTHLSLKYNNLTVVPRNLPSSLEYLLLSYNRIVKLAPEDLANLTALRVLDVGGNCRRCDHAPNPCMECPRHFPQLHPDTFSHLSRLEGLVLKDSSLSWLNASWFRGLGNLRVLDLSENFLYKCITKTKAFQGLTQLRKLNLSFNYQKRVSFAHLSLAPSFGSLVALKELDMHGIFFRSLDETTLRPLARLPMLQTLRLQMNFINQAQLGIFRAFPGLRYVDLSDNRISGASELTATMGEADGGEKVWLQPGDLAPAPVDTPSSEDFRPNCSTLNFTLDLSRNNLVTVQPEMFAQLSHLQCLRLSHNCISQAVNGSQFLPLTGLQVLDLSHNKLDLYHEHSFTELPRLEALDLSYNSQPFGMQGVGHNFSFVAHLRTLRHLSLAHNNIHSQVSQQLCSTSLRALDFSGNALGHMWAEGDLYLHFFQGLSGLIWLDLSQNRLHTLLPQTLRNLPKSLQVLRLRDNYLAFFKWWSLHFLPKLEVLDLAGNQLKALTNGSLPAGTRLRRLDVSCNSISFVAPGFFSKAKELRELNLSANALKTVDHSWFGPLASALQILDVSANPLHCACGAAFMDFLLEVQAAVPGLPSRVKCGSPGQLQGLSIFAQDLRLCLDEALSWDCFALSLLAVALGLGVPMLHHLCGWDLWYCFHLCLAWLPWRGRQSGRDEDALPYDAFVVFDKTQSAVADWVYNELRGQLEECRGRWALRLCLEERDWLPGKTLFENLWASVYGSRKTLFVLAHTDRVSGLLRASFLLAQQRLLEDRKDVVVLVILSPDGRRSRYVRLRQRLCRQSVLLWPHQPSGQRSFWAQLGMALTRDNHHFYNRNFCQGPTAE

Chain of TLR7 expressed in HEK293 cells (Q9NYK1 27-1049 limits assumed): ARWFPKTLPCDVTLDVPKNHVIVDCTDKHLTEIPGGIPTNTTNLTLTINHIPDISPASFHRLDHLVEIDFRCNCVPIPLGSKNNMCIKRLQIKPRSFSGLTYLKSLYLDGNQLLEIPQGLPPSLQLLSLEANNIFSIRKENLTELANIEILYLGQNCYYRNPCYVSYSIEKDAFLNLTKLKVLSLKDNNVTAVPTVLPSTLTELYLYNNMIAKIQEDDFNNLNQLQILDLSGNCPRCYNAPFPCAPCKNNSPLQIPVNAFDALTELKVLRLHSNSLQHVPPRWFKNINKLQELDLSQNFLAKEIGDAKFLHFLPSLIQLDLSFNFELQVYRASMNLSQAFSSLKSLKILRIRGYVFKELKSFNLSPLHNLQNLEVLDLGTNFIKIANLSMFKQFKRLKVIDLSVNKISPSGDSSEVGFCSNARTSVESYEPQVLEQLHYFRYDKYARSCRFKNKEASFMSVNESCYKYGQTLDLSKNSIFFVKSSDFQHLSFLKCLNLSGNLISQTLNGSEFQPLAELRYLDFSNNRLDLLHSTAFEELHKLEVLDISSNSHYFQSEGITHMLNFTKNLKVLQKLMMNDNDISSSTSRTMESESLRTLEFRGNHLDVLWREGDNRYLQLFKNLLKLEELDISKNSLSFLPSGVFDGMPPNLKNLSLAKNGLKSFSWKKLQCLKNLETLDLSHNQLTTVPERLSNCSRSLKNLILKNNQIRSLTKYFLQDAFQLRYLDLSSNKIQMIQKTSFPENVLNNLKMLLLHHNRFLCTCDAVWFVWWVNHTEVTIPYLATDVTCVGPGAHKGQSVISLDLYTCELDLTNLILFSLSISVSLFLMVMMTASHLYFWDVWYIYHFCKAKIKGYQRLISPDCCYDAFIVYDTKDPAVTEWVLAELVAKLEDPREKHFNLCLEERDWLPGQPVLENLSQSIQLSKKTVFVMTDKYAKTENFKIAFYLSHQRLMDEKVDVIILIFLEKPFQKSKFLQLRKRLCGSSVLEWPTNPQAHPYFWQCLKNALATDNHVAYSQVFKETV

recombinant human Cpn10 with an N-terminal Alanine residue (from UniProt P61604 2-102)
NF-κB activation (luciferase reporter) in HEK293 cells expressing TLR7 and TLR4, stimulated with R848 (fold reduction) [1]: 2
NF-κB activation (luciferase reporter) in HEK293 cells expressing TLR9, stimulated with CpG DNA (fold reduction) [2]: 5 to 10
